Consider six proteins from publication PMC6451127.

B1: AtMAPDA (Arabidopsis thaliana; T97A) (protein)
chain: MEWIQSLPKIELHAHLNGSIRDSTLLELARVLGEKGVIVFADVEHVIQKNDRSLVEVFKLFDLIHKLTTDHKTVTRITREVVEDFALENVVYLELRATPKRSDSIGMSKRSYMEAVIQGLRSVSEVDIDFVTASDSQKLHNAGDGIGRKKIYVRLLLSIDRRETTESAMETVKLALEMRDVGVVGIDLSGNPLVGEWSTFLPALQYAKDNDLHITLHCGEVPNPKEIQAMLDFKPHRIGHACFFKDEDWTKLKSFRIPVEICLTSNIVTKSISSIDIHHFADLYNAKHPLILCTDDFGVFSTSLSNEYALAVRSLGLSKSETFALARAAIDATFAEDEVKQQLRFIFDSASPEHV
B2: AtMAPDA (Arabidopsis thaliana; N17A) (protein)
chain: B1 chain with N17A, A97T
B3: AtMAPDA (Arabidopsis thaliana; K100A) (protein)
chain: B1 chain with A97T, K100A
B4: AtMAPDA (Arabidopsis thaliana; T98A) (protein)
chain: B1 chain with A97T, T98A
B5: AtMAPDA (Arabidopsis thaliana; H65A) (protein)
chain: B1 chain with H65A, A97T
B6: AtMAPDA (Arabidopsis thaliana) (protein)
chain: B1 chain with A97T

Numbering of substitutions follows the chain as printed. In names and notes the source's numbering stands.

Substrate in the first data set: CNc1ncnc2c1ncn2[C@@H]1O[C@H](COP(=O)(O)O)[C@@H](O)[C@H]1O
In words: purified protein. As to conditions: 20 mM potassium phosphate pH 7.2, 25 °C. The data set is classed as biochemical, Arabidopsis thaliana.
B1: the Km turned out to be 8.94 µM.

Regarding B2, the Km was 7.12 µM.

As to B3, the Km was 6.89 µM.

In the case of B4, the Km was found to be 4.52 µM.

On to B5, for which the Michaelis-Menten constant (Km) came to 5.51 µM.

Still in this data set, the particulars now being: 20 mM potassium phosphate pH 7.2, 25 °C, 250 nM enzyme.
Turning to B6, the Km is 4.14 µM.

As a reminder, the Km is the substrate concentration at which the rate is half of its maximum.
